Measured values published in patent US20250381307A1, “RETRO-AAV AND USE IN TREATING NEURODEGENERATIVE DISEASES” (priority 2023, published 2025).
Changes are numbered by the printed parent chain. In names and notes the source's numbering stands.

B1: AAV8R4: AAV8R capsid mutant R490Q (SEQ ID NO: 5) (protein)
chain: MAADGYLPDWLEDNLSEGIREWWALKPGAPKPKANQQKQDDGRGLVLPGYKYLGPFNGLDKGEPVNAADAAALEHDKAYDQQLQAGDNPYLRYNHADAEFQERLQEDTSFGGNLGRAVFQAKKRVLEPLGLVEEGAKTAPGKKRPVEPSPQRSPDSSTGIGKKGQQPARKRLNFGQTGDSESVPDPQPLGEPPAAPSGVGPNTMAAGGGAPMADNNEGADGVGSSSGNWHCDSTWLGDRVITTSTRTWALPTYNNHLYKQISNGTSGGATNDNTYFGYSTPWGYFDFNRFHCHFSPRDWQRLINNNWGFRPKRLSFKLFNIQVKEVTQNEGTKTIANNLTSTIQVFTDSEYQLPYVLGSAHQGCLPPFPADVFMIPQYGYLTLNDGSQAVGRSSFYCLEYFPSQMLRTGNNFQFTYTFEDVPFHSSYAHSQSLDRLMNPLIDQYLYYLSRTQTTGGTANTQTLGFSQGGPNTMANQAKNWLPGPCYRQQQVSTTTGQNNNSNFAWTAGTKYHLNGRNSLANPGIAMATHKDDEERFFPSNGILIFGKQNAARDNADYSDVMLTSEEEIKTTNPVATEEYGIVADNLQRGNLADQDYTKTARQAATADVNSQGALPGMVWQNRDVYLQGPIWAKIPHTDGNFHPSPLMGGFGLKHPPPQILIKNTPVPADPPTTFNQSKLNSFITQYSTGQVSVEIEWELQKENSKRWNPEIQYTSNYYKSINVDFAVNTEGVYSEPRPIGTRYLTRNL
B2: AAV8R2: AAV8R capsid mutant N411S (SEQ ID NO: 3) (protein)
chain: B1 chain with N411S, Q490R
B3: AAV8R13: AAV8R capsid mutant V125I + F536Y + T495A (SEQ ID NO: 14) (protein)
chain: B1 chain with V125I, Q490R, T495A, F536Y
B4: AAV8R8: AAV8R capsid mutant T495A (SEQ ID NO: 9) (protein)
chain: B1 chain with Q490R, T495A
B5: AAV8R7: AAV8R capsid mutant A606S (SEQ ID NO: 8) (protein)
chain: B1 chain with Q490R, A606S
B6: AAV8R11: AAV8R capsid mutant V125I + T495A (SEQ ID NO: 12) (protein)
chain: B1 chain with V125I, Q490R, T495A
B7: AAV8R10: AAV8R capsid mutant V125I + A606S (SEQ ID NO: 11) (protein)
chain: B1 chain with V125I, Q490R, A606S
B8: AAV8R5: AAV8R capsid mutant V125I (SEQ ID NO: 6) (protein)
chain: B1 chain with V125I, Q490R
B9: AAV8R6: AAV8R capsid mutant F536Y (SEQ ID NO: 7) (protein)
chain: B1 chain with Q490R, F536Y
B10: AAV8R14: AAV8R capsid mutant V125I + A606S + T495A (SEQ ID NO: 15) (protein)
chain: B1 chain with V125I, Q490R, T495A, A606S
B11: AAV8R3: AAV8R capsid mutant Y447F (SEQ ID NO: 4) (protein)
chain: B1 chain with Y447F, Q490R
B12: AAV8R9: AAV8R capsid mutant V125I + F536Y (SEQ ID NO: 10) (protein)
chain: B1 chain with V125I, Q490R, F536Y
B13: AAV8R1: AAV8R capsid mutant V183E (SEQ ID NO: 2) (protein)
chain: B1 chain with V183E, Q490R
B14: G88P3: 1395-bp shortened derivative of G88P2 promoter (SEQ ID NO: 45) (nucleic acid, listed as Homo sapiens)
DNA: TCTAGATGTACCACTGACATCTGCTTTAAATCTTTTGCCCATTTCATTTTTACCCTCTAACCATTTCATTACTAAAACACAAAACAAACTCCGGAAAGGAGTTTGTTGATGAGAAAACACTGAAAGTACGATTTAAATTGAGGAATGGAGATTTTCTGTGGATAATTGTCTATGTTCCACTTTACCAAAGAAAAATGAATTTCAAGTAGTGCATAAAGTAATTCTCGTTAAAAAATGTGGGAATAAAGAGATCAGTCCTGGGTACTGGGAATATATTTATCTCACAGAAAAATCTTGCCCACAAAATGCATCAGACTGAGATGAAATACTCTAGGGTATATTAAATTTTATTCTAATATTGAAGGGAGGGAAAAAAAGGACGGAAAGAAAAATGAAACAGGATGAAAAATAAGGTGATTGGGAGAGAGAAAAGACAGAGAAACTTGTTAACGACAGGACTTTCTGAGCAAGATATTTTTCTTCCTTTTACAAGTTGGAAGCTATTGAATAATTCATGCCAAGCGTGGAAAGGCTGTCTTTTCCCTGGATGATGTATAACTAAGCAGGAGAGAGCTTCGAGTGGGTTCACCACATCAGCCACCACTCCTGCTTCTGAGCACAGGGTGCTCTCCTCTTGAGCTCAGCTTCTGCTTTTGCAGCCAAGCATTCTTGCTGCTGCTGCCTGCCTGCCCACCCGCCTGGGCTTGCAGCCCGCCACTTTACTTTCTCCAGCCCTGATACCAGCTGAGAAGTCTCCCTGCAGCTGCTAGTTCCTGCCCAGGACCATGTGTGTGGATGCTGCTTGGGAGAAGCGGGCACTTGCTCCTGGCACTGATCCCAGCTGAGTTTCTCCTGTTGATTTCTGGACCACTGATGCTGTTGCTGAGGAGGTATTTCCCGGCATCCCTCCCCCTGAGACACCGGCTAAGGACCAGCCTAAACGCAAGGTAACCTTCACCTCTTTCCCATGGGATTTTCCCCAGCTGGGATATCTCTGCTTTCTCCTGGAACTAGGTCCTCCAGCTGGCAACATATCTCTCTCTCTCTCTCTCTCTCTCTCTCTCTCTCTCTGTGTGTGTGTGTGTGTGTTGGGGGAGAAGAGGAGACTGTTTTAGGTATTGCTCTGTCCTAGGGCTTCCCCGATACCTGCTGAATCCAATGCAAAGTGGCCTTTCCCCTGGCTCTGGAGACATTTCCGAGGCAGGCACCTGTCATTTGCCACCCCCGTCCTCCTCCTCGAGCTCCCTTTCTCCCCCTCCCCCAGCCCATTATTCTGCTTCAGCCTTTTGTGTCAGTGGCAGAGGGCTGAAGGGATGTCTTTGCCCTTCTGGCAGGCAGGACAGTGTCAGGATGGACCGCGCTGCCAGAAGCCGACGCTAGCGAGGGAGGTGTGAA

Key:
substantia nigra = assay: Promoter activity level in substantia nigra after AAV injection into the SNr; format: in vivo, mice; conditions: numbers of YFP-expressing neurons per animal
Source text: (§1) Brain profiles of two epigenetic marks for enhancers and promoters, monomethylation of histone H3 lysine 4 (H3K4me1) and acetylation of histone H3 lysine 27 (H3K27ac) were checked and approximately 2 kilobase-long sequences around the transcriptional start site (TSS) that have high levels of H3K4me1 and/or H3K27ac were identified in mouse brain. Homologous sequences at equivalent positions of the human genome were then cloned onto an AAV backbone, and the activity of the homologous sequences in directing reporter expression was tested in mice after injections of AAVs into the SNr (FIG. 3A-C, TABLE 3).
(§2) Mice were anesthetized with sodium pentobarbital (Nembutal; 80 mg/kg, i.p.), and then placed into a stereotaxic device (KOPF). Eye cream was applied on both corneas to avoid dehydration. The skull above the targeted areas was thinned with a dental drill and carefully removed. Injections were conducted with a 10 μL syringe connected to a 33-Gauge needle (Neuros; Hamilton), using a microsyringe pump (Legato 130, KD Scientific). A total volume of 200 nL virus was injected into the SNr at a speed of 20 nL/min. The coordinates for the SNr were 3.4 mm posterior, 1.3 mm lateral, 4.8 mm ventral to the bregma.
(§3) Images were acquired using a confocal microscope (Carl Zeiss, LSM880) and an Axiolmager.Z1 microscope with apotome (Carl Zeiss). Brain structures were identified microscopically and in digital photos using a mouse brain atlas. To analyze the number of EYFP+ cells in the striatum, slices from rostral to caudal striatum were used. Every sixth section was analyzed, and numbers of EYFP+ cells were multiplied by six to acquire the approximate total number and mean number of cells per animal. Images were processed using ImageJ (NIH, USA), and final quantifications were independently performed manually by two blinded experimenters.

[1] = tested on: striatonigral projection neurons (striatal MSNs); assay: Retrograde labeling of striatal MSNs after AAV injection into the SNr (EYFP+ cell counting); format: in vivo, mice; conditions: for reporter-labeled MSNs by promoter (FIG. 4B): SNr injection, n=3 mice, mean±SEM; for Activity Level STR: striatum, numbers of YFP-expressing neurons per animal; for Labeling Efficiency in Striatonigral Pathway: AAV8R capsid mutants, numbers of labeled neurons per animal
Source text: as §1, §2, §3

| Molecule | Labeling Efficiency in Striatonigral Pathway [1] | also measured |
| --- | --- | --- |
| G88P2: 2259-bp promoter from the gene GPR88 (SEQ ID NO: 44) | – | Activity Level SN (substantia nigra): + (<5k); reporter-labeled MSNs by promoter (FIG. 4B) [1]: 36290±3705; Activity Level STR [1]: ++++ (>25k) |
| R9P1: tested promoter from gene RGS9, 2152 bp (SEQ ID NO: 47) | – | Activity Level SN (substantia nigra): + (<5k); Activity Level STR [1]: +++ (10k-25k) |
| B1 | + (<5k) | – |
| B2 | + (<5k) | – |
| B3 | ++ (5k-10k) | – |
| B4 | + (<5k) | – |
| B5 | + (<5k) | – |
| B6 | + (<5k) | – |
| B7 | + (<5k) | – |
| B8 | + (<5k) | – |
| B9 | + (<5k) | – |
| B10 | ++ (5k-10k) | – |
| B11 | + (<5k) | – |
| B12 | + (<5k) | – |
| B13 | + (<5k) | – |
| B14 | – | Activity Level SN (substantia nigra): + (<5k); reporter-labeled MSNs by promoter (FIG. 4B) [1]: 37026±6646; Activity Level STR [1]: ++++ (>25k); labeled MSNs per mouse ([1]; viruses expressing EYFP, injection into the SNr (FIG. 4B)): 3.7±0.66 ×104 MSNs per mouse |
